Measurements: PMC8119438

Biological target: GST-Rab12 (mouse) (UniProt P35283)
Assay: pull-down; 20 μg GST, GST-Rab12 or GST-Rab12(K71R) on glutathione agarose beads, 18 h at 4 °C with 500 μg lysate of RBL cells transfected with T7-tagged RILP, RILP mutants, RILP-L1 or RILP-L2, 0.5 mM GTPγS; blot anti-T7 (Fig. 2b,c; Supplementary figure S3)

Chain of UniProt P35283 (P35283 other isoform, or with tags, fused parts or gaps): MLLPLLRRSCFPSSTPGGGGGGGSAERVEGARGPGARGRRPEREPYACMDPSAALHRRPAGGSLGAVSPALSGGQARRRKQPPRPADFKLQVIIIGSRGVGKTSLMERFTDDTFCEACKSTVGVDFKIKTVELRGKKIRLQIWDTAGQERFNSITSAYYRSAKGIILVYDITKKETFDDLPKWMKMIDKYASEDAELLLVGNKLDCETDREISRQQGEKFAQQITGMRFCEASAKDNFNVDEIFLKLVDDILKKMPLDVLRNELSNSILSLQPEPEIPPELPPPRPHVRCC

B1: T7-RILP(L231A) (natural protein)
chain: MEPRRAAPRLPSQASSSVGAGSAAELVYHLAGALGTELQGLARRFGPDAAAGLVPLVVRALELLEKAAVGPAPDSLQVSAQQAEVELRRLREENQRLRQELGSGPQEERALLRQLKEVTDRQRDELRAHNRDLQRRSQETEALQEQLQRLLLINSELRHKLAAVQTQLRAAQDRERERQIAQDGSSQLAKEQSLEPDAATSDDPVDTQKQPGNLPEAVQCGFSREELKQIAQERNELKANVFLLKEELAYFQRELLTDHRVPGLLLEAMKVAVKKQRRKIKAKMLGTPEEAESSEDEDGSWLLLSNDKEDVPLVPESRIQNFFGLWYRGETEAPEAETSNPASSSLQKGEETPQQPHLQPVNSPPAPNS
  percent by which the pulldown by Rab12 was impaired, against wild type RILP: 85%

B2: T7-RILP(E233A) (natural protein)
chain: MEPRRAAPRLPSQASSSVGAGSAAELVYHLAGALGTELQGLARRFGPDAAAGLVPLVVRALELLEKAAVGPAPDSLQVSAQQAEVELRRLREENQRLRQELGSGPQEERALLRQLKEVTDRQRDELRAHNRDLQRRSQETEALQEQLQRLLLINSELRHKLAAVQTQLRAAQDRERERQIAQDGSSQLAKEQSLEPDAATSDDPVDTQKQPGNLPEAVQCGFSREELKQILQARNELKANVFLLKEELAYFQRELLTDHRVPGLLLEAMKVAVKKQRRKIKAKMLGTPEEAESSEDEDGSWLLLSNDKEDVPLVPESRIQNFFGLWYRGETEAPEAETSNPASSSLQKGEETPQQPHLQPVNSPPAPNS
  percent by which the pulldown by Rab12 was inhibited, against wild type RILP: 90%
